Results as given in paper PMC10135305.

Molecular target: C-terminal domain of catalase-3 (CAT-3) of Neurospora crassa (TDC3) (Neurospora crassa) (UniProt Q9C169)
Assay: SEC; Superdex 75 HR 10/300 on FPLC; TDC3 1 mg/mL injected, 0.75 mL/min; mass from gel filtration standards

stoichiometry N: 2
Substance: C-terminal domain of catalase-3 (CAT-3) of Neurospora crassa (TDC3) (from UniProt Q9C169 568-719) (domain or fragment)
